# Measured values from patent US20210206877A1 (Genentech, published 2021).
# Substitutions are numbered along the chain they refer to.
# B1: 5930 (antibody, V domains shown)
# VH: QVQLVQSGAEVKKPGSSVKVSCKASGGTLSGYAISWVRQAPGQGLEWMGNIIPGFGTANYAQKSQGRVTITADESTSTAYMELSSLRSEDTAVYYCARSGGTRYGMLDVWGQGTMVTVSS
# VL: EIVMTQSPATLSVSPGERATLSCRASQSVGSNLAWYQQKPGQAPRLLIYGASTRATGIPARFSGSGSGTEFTLTISSLQSEDFAVYYCQQLYTWPPRTFGGGTKVEIK
# B2: 5987 (antibody, V domains shown)
# VH: B1 VH
# VL: B1 VL with G30S, Y92F, T93L
# B3: 6296 (antibody, V domains shown)
# VH: QLQLQESGPGLVKPSETLSLTCTVSGGSISSSSYYWGWIRQPPGKGLEWIGNIYYSGSTYYNPSLRGRVTISVDTSKNQFSLKLSSVTAADTAVYYCARLGHGYNYFDLWGRGTLVTVSS
# VL: EIVLTQSPATLSLSPGERATLSCRASQSVSSYLAWFQQKPGQAPRLLIYDASNRATGIPARFSGSGSGTDFTLTISSLEPEDFAVYYCQQVYVWPPRTFGGGTKVEIK
# B4: 5985 (antibody, V domains shown)
# VH: B3 VH with R66K, G67S
# VL: B3 VL
# B5: 6289 (antibody, V domains shown)
# VH: B3 VH with N52S, Y55R, G67S, A98V, L100V, Y104I, N105S
# VL: B3 VL with F36Y, V91S, Y92L, V93T
# B6: 6285 (antibody, V domains shown)
# VH: B3 VH with I29T, N52S, Y55R, R66K, G67S, L100V, Y104I, N105S
# VL: B3 VL with F36Y, N53S, V91S, Y92L, V93T
# B7: 6293 (antibody, V domains shown)
# VH: B3 VH with N52M, Y60W, G67S, L100V, Y104V, N105S
# VL: B3 VL with F36Y, N53K, V93T
# B8: 6271 (antibody, V domains shown)
# VH: B1 VH with L29I, A33G, S64F, R103K
# VL: B1 VL with G30S, Y92I, T93L
# B9: 6270 (antibody, V domains shown)
# VH: B1 VH with L29F, A33G, S64F, R103K
# VL: B1 VL with G30S, Y92L, T93L
# B10: 6280 (antibody, V domains shown)
# VH: B3 VH with I29T, N52S, Y55R, L65F, R66K, G67S, L100V, Y104I, N105S
# VL: B3 VL with F36Y, V91S, Y92L, V93T
# B11: 5983 (antibody, V domains shown)
# VH: B3 VH with G67S, S81F
# VL: B3 VL
# B12: 6291 (antibody, V domains shown)
# VH: B3 VH with N52M, Y60W, R66K, G67S, L100V, Y104V, N105S
# VL: B3 VL with F36Y, D50G, N53K, V93T
# B13: 5990 (antibody, V domains shown)
# VH: B3 VH with S31W, G37S, N52S, Y55R, S58R, R66K, G67S, L100V, Y104I
# VL: B3 VL with Q27R, S30N, F36Y, N53K, V93T
# B14: 6273 (antibody, V domains shown)
# VH: B1 VH with L29F, A33G, S64F, R103K
# VL: B1 VL with G30S, L33I, Y92L, T93L
# B15: 6274 (antibody, V domains shown)
# VH: B1 VH with L29F, A33G, S64F, R103K
# VL: B1 VL with G30S, N32H, Y92I, T93L
# B16: 6290 (antibody, V domains shown)
# VH: B3 VH with N52M, Y60W, R66K, G67S, L100V, H102L, Y104V, N105S
# VL: B3 VL with F36Y, N53K, V93T
# B17: 5932 (antibody, V domains shown)
# VH: B3 VH with S31R, S32G, N52M, Y60W, R66K, G67S, L100V, Y104I, N105S
# VL: B3 VL with F36Y, N53K, V93T
# B18: 6294 (antibody, V domains shown)
# VH: B3 VH with Y34H, N52M, Y60W, R66K, G67S, L100V, Y104V, N105S
# VL: B3 VL with F36Y, N53K, V93T
# B19: 6275 (antibody, V domains shown)
# VH: B1 VH with L29F, S30R, S64F, R103K
# VL: B1 VL with G30S, Y92F, T93L
# B20: 6297 (antibody, V domains shown)
# VH: B3 VH with S28P
# VL: B3 VL
# B21: 6288 (antibody, V domains shown)
# VH: B3 VH with I29T, N52S, Y55R, G67S, L100V, Y104I, N105S
# VL: B3 VL with F36Y, V91S, Y92L, V93T
# B22: 5982 (antibody, V domains shown)
# VH: B3 VH with R66K, G67S, N105S
# VL: B3 VL
# B23: 5984 (antibody, V domains shown)
# VH: B3 VH with R66K
# VL: B3 VL
# B24: 6272 (antibody, V domains shown)
# VH: B1 VH with L29F, A33G, S64F, R103K
# VL: B1 VL with G30S, Y92F, T93L
# B25: 5988 (antibody, V domains shown)
# VH: B1 VH
# VL: B1 VL with E1G
# B26: 5986 (antibody, V domains shown)
# VH: B3 VH with N52Q, Y60F, R66K, G67S, N105S
# VL: B3 VL
# B27: 6279 (antibody, V domains shown)
# VH: B1 VH with L29F, S30R, S64F, R103K
# VL: B1 VL with G30S, Y92L, T93L
# B28: 6276 (antibody, V domains shown)
# VH: B1 VH with L29F, S30R, F55L, G56S, S64F, R103K
# VL: B1 VL with G30S, Y92I, T93L
# B29: 5933 (antibody, V domains shown)
# VH: B3 VH with S31R, S32G, N52M, Y60W, R66K, G67S, L100V, Y104V, N105S
# VL: B3 VL with F36Y, D50G, N53K, V93T
# B30: 5931 (antibody, V domains shown)
# VH: B3 VH with S31W, G37S, N52S, Y55R, S58R, R66K, L100V, Y104I
# VL: B3 VL with F36Y, N53K, V93T
# Biological target: BACE1 endogenous to primary cortical neurons from E16.5 CD1 mice (mouse, UniProt P56818 46-501)
# Assay: cell-based or functional assay
# BACE1 endogenous to primary cortical neurons from E16.5 CD1 mice, sequence (P56818 46-501): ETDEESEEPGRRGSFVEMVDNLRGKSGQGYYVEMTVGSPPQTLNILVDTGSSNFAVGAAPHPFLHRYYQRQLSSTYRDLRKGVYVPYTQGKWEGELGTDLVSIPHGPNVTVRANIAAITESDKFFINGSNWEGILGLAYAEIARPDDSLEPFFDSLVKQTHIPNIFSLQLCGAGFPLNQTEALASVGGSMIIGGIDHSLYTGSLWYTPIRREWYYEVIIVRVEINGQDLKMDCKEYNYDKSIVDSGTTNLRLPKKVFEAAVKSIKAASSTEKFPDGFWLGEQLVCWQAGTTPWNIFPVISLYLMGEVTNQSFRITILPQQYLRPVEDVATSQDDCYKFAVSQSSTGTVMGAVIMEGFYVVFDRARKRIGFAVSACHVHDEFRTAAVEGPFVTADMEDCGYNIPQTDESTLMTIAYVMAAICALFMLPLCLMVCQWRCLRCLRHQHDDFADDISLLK
row,"max % inhibition, Abeta x-40 in mouse cortical neurons",Binder
1,74%,B1
2,69%,B2
3,62%,B3
4,73%,B4
5,74%,B5
6,57%,B6
7,75%,B7
8,83%,B8
9,85%,B9
10,65%,B10
11,72%,B11
12,68%,B12
13,61%,B13
14,82%,B14
15,85%,B15
16,63%,B16
17,57%,B17
18,59%,B18
19,71%,B19
20,63%,B20
21,67%,B21
22,71%,B22
23,70%,B23
24,82%,B24
25,75%,B25
26,67%,B26
27,71%,B27
28,81%,B28
29,67%,B29
30,69%,B30
